Data: patent publication US20230331781A1, “PAR4 DERIVED PEPTIDES, ANALOGS AND USES THEREOF” (Yissum Research Development Company of the Hebrew …, priority 2019, published 2023)
Entries after “also recorded” stand apart in the source; their conditions may differ. Blank lines part the entries; values can stand above or below the molecule they belong to.

Columns and labels:
[1] = system: MDA-MB-231 cells; test: PAR4 induced Matrigel invasion of MDA-MB-231 cells; format: cell-based, human; settings: AYPGKF activated MDA-MB-231 cells, FIGS. 3B and 3C
[2] = biological target: T1, PAR4-Akt association (Homo sapiens, UniProt P31749); test: PAR4-Akt association, immunoprecipitation in HEK293 cells transfected with flg-Par4 and AYPGKF activated; format: cell-based; settings: HEK 293T cells, wt flg-Par4, AYPGKF activation, FIG. 3D
T1 construct: FLAG; expressed in transfected cells
Protocol: (§1) Experiments shown in FIG. 3A-3C were carried out in MDA-MB-231 cells. […] Unpaired Student's t test was used. This experiment is a representative of three independent experiments performed in triplicates. […] HEK 293T cells were transfected with wt flg-Par4 followed by AYPGKF activation of PAR4. IP was performed using anti fig abs of cells treated or not with CTP4-A peptide and immunoblotting with anti-Akt abs.
FIG. 4A—PH-Akt module alone binds PAR4-C-tail but not mutant R25C. HEK 293 cells were transiently transfected with flg-Par4 construct and either with GFP-PH-Akt domain alone or GFP-R25C. IP of cell lysates following PAR4 AYPGKF activation was carried out using anti-flg abs. Detection of either Akt-PH domain alone associated with PAR4 was performed with anti-GFP. […] FIG. 4C—The PI3K inhibitor […] inhibits the binding of Akt to PAR4. Treatment of HEK 293 cells with LY294002 for various time points or not, following transient transfection with flg-Par4 and AYPGKF activation was performed. Cell lysates were immunoprecipitated with anti-flg antibodies, and anti-Akt was used to assess the association of Akt with the PAR4 C-tail. […] Amino acid residues of PAR4- and PAR2-PH binding motifs. FIG. 4E—mutations inserted into flg-Par4 generated flg-Par4MutE346A. HEK293 cells were transiently transfected with either wt flg-Par4 or flg-Par4MutE346A. IP of cell lysates following PAR4 activation was carried out using anti-flg abs. Detection of PAR4-Akt association was performed by anti Akt Abs. While association with wt Par4 is seen after 5 and 10 min AYPGKF PAR4 activation, when using flg-Par4 E346A no inhibition is seen and effective association with Akt is seen at 30 min activation. FIG. 4F—utations inserted into flg-Par4 generated flg-Par4Mut F347A and flg-Par4Mut D349A. HEK293 cells were transiently transfected with either wt flg-Par4 or flg-Par4Mut F347A or flg-Par4Mut D349A. IP of cell lysates following PAR4 activation was carried out using anti-f/g abs. Detection of PAR4-Akt association was performed by anti Akt Abs. While association with wt Par4 is seen after 5 min AYPGKF PAR4 activation, no such binding is obtained when using either flg-Par4 F347A or flg-Par4D349A.
HEK293 cells were transiently transfected with flg-Par4 followed by AYPGKF PAR4 activation in the presence and absence of PAR4c (4-4) within the range of 50 nM-150 μM. IP of cell lysates following different periods of activation was carried out using anti flg abs. Detection of Akt was performed by anti Akt abs. β-actin serves as a control gene for loading. […] Matrigel invasion before and after AYPGKF PAR4 activation and in the presence and absence of PAR4 c(4-4) inhibitor in the activated PAR4 cells. […] FIG. 8C—Histograms represent quantification of the cells/HPF invaded the Matrigel layer. […]

[3] = biological target: T2, PAR4 and Akt (Homo sapiens, UniProt P31749); test: Inhibition of binding of PAR4 to Akt by PAR4 C-tail peptides (FIG. 3A); format: cell-based; settings: MDA-MB-231 cells
T2 construct: endogenous in cells; host or cells: MDA-MB-231
Protocol: as §1
We evaluated the ability of these peptides to inhibit the binding of PAR4 to Akt protein. […] The PH-domain of Akt/PKB associates with PAR4. To elucidate whether Akt/PKB binds via its PH-domain, constructs of either wt Akt/PKB PH-domain were applied alone or an Akt/PKB-PH domain mutant R25C, impaired in its lipid binding capability of the Akt/PKB-PH domain. Transient transfections of flg-hPar4 and either wt GFP-PH-domain or PH-domain R25C mutant were carried out in HEK293 cells. Cells were activated by the PAR4 AYPGKF ligand for the indicated periods of time and the lysates were further processed for IP analysis. Distinct binding of GFP-Akt/PKB-PH domain module alone with the PAR4 C-tail was obtained (FIG. 4A). […] The mutant constructs (e.g., wt: YVSAEFRDKVRA; mutant F347L: YVSAELRDKVRA=PAR4MutF; mutant D349A: YVSAEFRAKVRA=PAR4MutD) were further evaluated for association with Akt/PKB. […]

[4] = biological target: T3, Akt/PKB (protein kinase B) (UniProt P31749 1-480, limits assumed); test: co-IP: anti-flg IP from HEK293 cells transfected with the mutant, anti-Akt blot (FIG. 4F)
T3 construct: Endogenous Akt of human cell lines
Protocol: FIG. 4A—PH-Akt module alone binds PAR₄-C-tail but not mutant R25C. HEK 293 cells were transiently transfected with flg-Par4 construct and either with GFP-PH-Akt domain alone or GFP-R25C. IP of cell lysates following PAR₄ AYPGKF activation was carried out using anti-flg abs. Detection of either Akt-PH domain alone associated with PAR₄ was performed with anti-GFP. […] FIG. 4C—The PI3K inhibitor […] inhibits the binding of Akt to PAR₄. Treatment of HEK 293 cells with LY294002 for various time points or not, following transient transfection with flg-Par4 and AYPGKF activation was performed. Cell lysates were immunoprecipitated with anti-flg antibodies, and anti-Akt was used to assess the association of Akt with the PAR₄ C-tail. […] Amino acid residues of PAR₄- and PAR₂-PH binding motifs. FIG. 4E—mutations inserted into flg-Par4 generated flg-Par4MutE346A. HEK293 cells were transiently transfected with either wt flg-Par4 or flg-Par4MutE346A. IP of cell lysates following PAR₄ activation was carried out using anti-flg abs. Detection of PAR₄-Akt association was performed by anti Akt Abs. While association with wt Par4 is seen after 5 and 10 min AYPGKF PAR₄ activation, when using flg-Par4 E346A no inhibition is seen and effective association with Akt is seen at 30 min activation. FIG. 4F—utations inserted into flg-Par4 generated flg-Par4Mut F347A and flg-Par4Mut D349A. […]

T1 sequence (P31749 whole entry): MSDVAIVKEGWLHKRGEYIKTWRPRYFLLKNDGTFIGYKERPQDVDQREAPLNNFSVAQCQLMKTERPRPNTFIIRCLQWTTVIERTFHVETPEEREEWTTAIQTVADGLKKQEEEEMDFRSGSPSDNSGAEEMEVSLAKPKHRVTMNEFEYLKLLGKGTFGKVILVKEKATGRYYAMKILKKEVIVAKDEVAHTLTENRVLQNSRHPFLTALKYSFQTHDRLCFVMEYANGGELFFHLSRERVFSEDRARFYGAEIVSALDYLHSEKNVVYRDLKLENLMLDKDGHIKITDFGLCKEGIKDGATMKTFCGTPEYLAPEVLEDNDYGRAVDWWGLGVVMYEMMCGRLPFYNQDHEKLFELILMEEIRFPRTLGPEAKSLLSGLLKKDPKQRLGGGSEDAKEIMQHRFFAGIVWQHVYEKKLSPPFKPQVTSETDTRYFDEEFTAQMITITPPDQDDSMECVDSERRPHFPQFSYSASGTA
T3 sequence (P31749 whole entry): as above
T2 sequence (P31749 whole entry): as above

inhibition of PAR4-Akt association (IP) [2]: not
Molecule: H-RAGLFQRSPGDT-OH [CTP4-B, downstream PAR4 C-tail peptide]
inhibition of PAR4 induced Matrigel invasion [1]: no effect

binding result [4]: no binding
B1: hPar4 D349A (receptor, human, UniProt Q96RI0 48-385, looked up)
chain: GYPGQVCANDSDTLELPDSSRALLLGWVPTRLVPALYGLVLVVGLPANGLALWVLATQAPRLPSTMLLMNLAAADLLLALALPPRIAYHLRGQRWPFGEAACRLATAALYGHMYGSVLLLAAVSLDRYLALVHPLRARALRGRRLALGLCMAAWLMAAALALPLTLQRQTFRLARSDRVLCHDALPLDAQASHWQPAFTCLALLGCFLPLLAMLLCYGATLHTLAASGRRYGHALRLTAVVLASAVAFFVPSNLLLLLHYSDPSPSAWGNLYGAYVPSLALSTLNSCVDPFIYYYVSAEFRAKVRAGLFQRSPGDTVASKASAEGGSRGMGTHSSLLQ
notes: whole, on cells; also called PAR4MutD; flg-Par4Mut D349A

The remaining lines, values behind:

Molecule: H-DTVASKASAEGG-OH [CTP4-C, downstream PAR4 C-tail peptide]
inhibition of PAR4 induced Matrigel invasion [1]: no effect

Molecule: H-YVSAEFRDKVRA-OH [Peptide 1]
inhibition of PAR4 induced Matrigel invasion ([1]; listed as CTP4-A): significantly inhibit; also recorded: attenuated
inhibition of PAR4-Akt association (IP) ([2]; listed as CTP4-A): inhibited; also recorded: potently inhibits
inhibition of interaction between PAR4 and Akt [3]: effectively inhibited
